# Measured values as given in publication PMC12162048 (Blood Vessels, Thrombosis & Hemostasis, 2024).
# T1: protein S, purified, P07225
# T1 chain: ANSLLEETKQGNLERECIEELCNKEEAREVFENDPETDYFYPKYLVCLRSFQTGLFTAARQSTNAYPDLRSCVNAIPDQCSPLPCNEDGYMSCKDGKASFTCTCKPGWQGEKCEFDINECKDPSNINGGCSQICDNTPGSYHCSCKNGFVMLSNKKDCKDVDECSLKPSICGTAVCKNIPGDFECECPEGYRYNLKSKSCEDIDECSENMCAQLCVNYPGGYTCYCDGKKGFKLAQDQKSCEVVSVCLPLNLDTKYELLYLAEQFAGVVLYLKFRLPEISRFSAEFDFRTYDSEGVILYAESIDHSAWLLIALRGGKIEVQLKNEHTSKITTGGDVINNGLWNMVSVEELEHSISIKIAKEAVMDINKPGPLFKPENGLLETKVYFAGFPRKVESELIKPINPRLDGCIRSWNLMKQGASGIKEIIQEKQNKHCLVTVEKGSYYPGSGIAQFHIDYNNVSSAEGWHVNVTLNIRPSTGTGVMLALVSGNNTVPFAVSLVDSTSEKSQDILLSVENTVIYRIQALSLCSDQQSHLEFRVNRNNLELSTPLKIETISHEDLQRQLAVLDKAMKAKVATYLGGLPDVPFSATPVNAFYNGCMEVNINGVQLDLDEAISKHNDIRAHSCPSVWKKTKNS
# B1: protein S, purified, P07225 42-676 (natural protein)
# chain: T1 chain
# B2: biotinylated protein S (natural protein)
# chain: T1 chain
# modifications: biotin (biotinylated, sites not stated)
# What was measured:
# [1] = target: T1, protein S, purified, P07225; experiment: native gel or EMSA; settings: remark: other sources report otherwise
# [2] = target: von Willebrand factor of plasma (human (endogenous in plasma), UniProt P04275 764-2813); experiment: ELISA
Binder,stoichiometry N [1],fold change of the apparent interaction with MerTK against without MerTK [2] [fold]
B1,2,
B2,,~2
